Target: smu2_caeel smu-2 (UniProt Q9N4U5)
Sequence (Q9N4U5 whole entry): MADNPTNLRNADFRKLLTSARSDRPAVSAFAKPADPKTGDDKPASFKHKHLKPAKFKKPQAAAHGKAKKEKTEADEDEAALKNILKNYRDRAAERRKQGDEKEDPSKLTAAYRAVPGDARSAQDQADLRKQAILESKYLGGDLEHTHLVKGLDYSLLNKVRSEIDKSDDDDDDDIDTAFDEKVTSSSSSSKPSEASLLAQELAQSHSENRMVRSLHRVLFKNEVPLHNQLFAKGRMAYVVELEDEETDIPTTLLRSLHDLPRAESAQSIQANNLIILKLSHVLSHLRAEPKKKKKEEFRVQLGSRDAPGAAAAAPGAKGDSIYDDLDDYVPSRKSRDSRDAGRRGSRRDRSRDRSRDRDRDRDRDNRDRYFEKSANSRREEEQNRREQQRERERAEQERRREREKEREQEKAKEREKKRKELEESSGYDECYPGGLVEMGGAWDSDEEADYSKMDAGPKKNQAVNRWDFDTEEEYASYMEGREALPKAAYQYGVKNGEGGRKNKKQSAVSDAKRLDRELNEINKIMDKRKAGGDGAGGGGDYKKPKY

Smu-1 suppressor of mec-8 and unc-52 protein (Caenorhabditis elegans), G5EEG7 L96R, sequence (G5EEG7 whole entry L96R): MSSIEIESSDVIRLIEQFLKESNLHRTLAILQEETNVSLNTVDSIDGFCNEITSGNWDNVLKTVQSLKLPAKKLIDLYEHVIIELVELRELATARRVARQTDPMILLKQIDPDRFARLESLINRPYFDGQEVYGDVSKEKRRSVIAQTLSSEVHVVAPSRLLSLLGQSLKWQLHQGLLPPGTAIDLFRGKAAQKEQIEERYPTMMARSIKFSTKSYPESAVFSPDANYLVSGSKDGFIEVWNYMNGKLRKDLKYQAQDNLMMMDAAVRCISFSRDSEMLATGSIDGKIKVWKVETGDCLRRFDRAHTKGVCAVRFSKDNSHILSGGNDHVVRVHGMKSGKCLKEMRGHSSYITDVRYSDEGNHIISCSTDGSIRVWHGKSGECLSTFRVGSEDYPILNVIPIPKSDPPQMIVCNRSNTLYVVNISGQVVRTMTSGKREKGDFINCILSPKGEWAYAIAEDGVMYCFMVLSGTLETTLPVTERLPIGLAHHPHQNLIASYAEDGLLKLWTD

Substance: Smu-1 suppressor of mec-8 and unc-52 protein (Caenorhabditis elegans), G5EEG7 L96R
- effect of a mutation on the interaction: disrupting interaction strength
